Where no end group is shown, it is not given here.
What was measured:
[1] = target: T1, anti-CD28 scFv (VH - linker 1 - VL) (biotinylated (site not stated)); assay: phage ELISA as above, wells pre-incubated with soluble CD28 (competitor);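 further: ELISA of crude clonal phage supernatants added to wells pre-treated with soluble CD28 in blocking buffer, bound phage read out with HRP-conjugated anti-M13 antibody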
T1 sequence (scFv, as listed by the source): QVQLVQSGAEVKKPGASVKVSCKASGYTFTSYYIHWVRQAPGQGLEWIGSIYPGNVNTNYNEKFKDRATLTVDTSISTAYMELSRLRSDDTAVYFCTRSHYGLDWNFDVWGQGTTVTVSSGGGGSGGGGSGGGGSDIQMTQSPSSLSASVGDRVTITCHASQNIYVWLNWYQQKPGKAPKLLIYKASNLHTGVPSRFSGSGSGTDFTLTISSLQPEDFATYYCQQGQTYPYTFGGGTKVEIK

[2] = target: T1, anti-CD28 scFv (VH - linker 1 - VL); assay: phage ELISA; biotinylated anti-CD28 scFv on neutravidin plate, clonal phage supernatant, anti-M13-HRP detection;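 further: before phage addition, wells were pretreated with soluble CD28 protein in blocking buffer, or with blocking buffer only as the comparison, then phage were added without washing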
[3] = target: T2, anti-CD28 scFv (VH - linker 1 - VL) (biotinylated (captured on neutravidin coated plates)); assay: clonal phage ELISA on anti-CD28 scFv; wells pre-incubated with soluble CD28 (competitor);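 further: crude phage supernatants added to wells preloaded with blocking buffer plus soluble CD28, bound phage read with HRP-linked anti-M13 antibody, comparison wells received blocking buffer only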
Description: (§1) Clonal phage were harvested as crude supernatants and screened via standard enzyme linked immunosorbent assays (ELISAs). […] Prior to the addition of clonal phage, wells were incubated with blocking buffer and CD28 soluble protein or blocking buffer alone. Without washing or aspirating, clonal phage supernatants were then added to the wells and incubated for a short time. Wells were then washed followed by detection of bound phage using a horse radish peroxidase conjugated anti-M13 antibody.

[4] = target: T2, anti-CD28 scFv (VH - linker 1 - VL); assay: clonal phage ELISA; biotinylated anti-CD28 scFv on neutravidin plate, phage detected with anti-M13-HRP;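 further: crude clonal phage supernatants added to wells preincubated with blocking buffer alone or blocking buffer plus soluble CD28 protein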
Description: as §1

[5] = target: T3, anti-CD28 scFv (VH - linker 1 - VL) (biotinylated (site not stated)); assay: clonal phage ELISA; biotinylated anti-CD28 scFv on neutravidin plate, anti-M13-HRP detection;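 further: crude supernatants of phage clones were tested in wells pretreated with blocking buffer either alone or supplemented with soluble CD28 protein before phage addition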
T3 construct: Captured as biotinylated scFv on neutravidin coated plates in the clonal phage ELISA
T3 sequence (scFv, as listed by the source): as above

T2 sequence (scFv, as listed by the source): as above

For MDWCPRYLWTECFF (peptide, not shown: large carriers, Clonal phage of the Peptide-9 library) [Phage-158], the “CD28 scFv signal in presence of CD28” value [1] was 0.244 and the “CD28 scFv signal” value [2] was 1.26.

In the case of MDWCPRHLWYECFN [Phage-243], the “CD28 scFv signal in presence of CD28” value [3] is reported as 0.167 and the “CD28 scFv signal” value [4] is reported as 2.41.

MDWCPRDRWVDCFF [Phage-223] was tested, and the “CD28 scFv signal in presence of CD28” value [3] was 0.14 and the “CD28 scFv signal” value [4] was 1.58.

For MDWCPRDRWADCFF [Phage-225], the “CD28 scFv signal in presence of CD28” value [3] was 0.089 and the “CD28 scFv signal” value [4] was 0.392.

For MDWCPFYLWDECFL (peptide, not shown: large carriers, Clonal phage of the Peptide-9 library) [Phage-165], the “CD28 scFv signal in presence of CD28” value [1] was 0.141 and the “CD28 scFv signal” value [2] was 1.02.

B1: Phage-167 (peptide, not shown: large carriers)
peptide: MSWCPQDLWHVCFN
modifications: cysteine pairing not given here; also: displayed as fusion to phage pIII, linker and pIII sequence not given here
notes: Clonal phage of the Peptide-9 library
With B1 the “CD28 scFv signal in presence of CD28” value [1] was 0.112 and the “CD28 scFv signal” value [2] was 0.86.

In the case of MDWCARFVGYGCLD [Phage-232], the “CD28 scFv signal in presence of CD28” value [3] is reported as 0.074 and the “CD28 scFv signal” value [4] is reported as 0.065.

For MDWCPRNMWHHCFD [Phage-248], the “CD28 scFv signal in presence of CD28” value [3] was 0.524 and the “CD28 scFv signal” value [4] was 1.6.

B2: Phage-211 (peptide)
peptide: MDWCPRNMWTVCFL
notes: tested as crude clonal phage supernatant
With B2 the “CD28 scFv signal” value [5] was 1.12.

MDWCPSYLWHECFF [Phage-237] was tested, and the “CD28 scFv signal in presence of CD28” value [3] was 0.447 and the “CD28 scFv signal” value [4] was 2.61.

With MDWCPRHLWHECYS [Phage-241] the “CD28 scFv signal in presence of CD28” value [3] was 0.374 and the “CD28 scFv signal” value [4] was 2.58.

With MFWCPRYLWHECFN (peptide, not shown: large carriers, Clonal phage of the Peptide-9 library) [Phage-163] the “CD28 scFv signal in presence of CD28” value [1] was 0.175 and the “CD28 scFv signal” value [2] was 1.08.

With MDWCPRSLWSYCFH (peptide, not shown: large carriers, Clonal phage of the Peptide-9 library) [Phage-157] the “CD28 scFv signal in presence of CD28” value [1] was 0.152 and the “CD28 scFv signal” value [2] was 1.33.

MDWCPKHLWHQCFH (peptide, not shown: large carriers, Clonal phage of the Peptide-9 library) [Phage-156] was tested, and the “CD28 scFv signal in presence of CD28” value [1] was 0.108 and the “CD28 scFv signal” value [2] was 1.35.

MDWCPKFLWDLCFA (peptide, not shown: large carriers, Clonal phage of the Peptide-9 library) [Phage-164] was tested, and the “CD28 scFv signal in presence of CD28” value [1] was 0.139 and the “CD28 scFv signal” value [2] was 1.07.

In the case of MAWCPMNLWDQCFF (peptide, not shown: large carriers, Clonal phage of the Peptide-9 library) [Phage-159], the “CD28 scFv signal in presence of CD28” value [1] is reported as 0.145 and the “CD28 scFv signal” value [2] is reported as 1.2.

MDWCPRDRWIDCFN [Phage-226] was tested, and the “CD28 scFv signal in presence of CD28” value [3] was 0.131 and the “CD28 scFv signal” value [4] was 0.339.

For MDWCPRDRWSDCFN [Phage-227], the “CD28 scFv signal in presence of CD28” value [3] was 0.074 and the “CD28 scFv signal” value [4] was 0.102.

For ITWCHVISGLECWN [Phage-228], the “CD28 scFv signal in presence of CD28” value [3] was 0.1 and the “CD28 scFv signal” value [4] was 0.193.

In the case of MDWCPKHLWTECFA [Phage-242], the “CD28 scFv signal in presence of CD28” value [3] is reported as 0.145 and the “CD28 scFv signal” value [4] is reported as 2.49.

B3: Phage-231 (peptide)
peptide: VPWCLIISGLDCLN
notes: also called VPWCLIISGLDCIN (so in the source)
B3 was tested, and the “CD28 scFv signal in presence of CD28” value [3] was 0.09 and the “CD28 scFv signal” value [4] was 0.107.

MHWCPRALWHECFN (peptide, not shown: large carriers, Clonal phage of the Peptide-9 library) [Phage-160] was tested, and the “CD28 scFv signal in presence of CD28” value [1] was 0.144 and the “CD28 scFv signal” value [2] was 1.18.

In the case of MDWCPKHLWNKCFN [Phage-246], the “CD28 scFv signal in presence of CD28” value [3] is reported as 0.092 and the “CD28 scFv signal” value [4] is reported as 1.16.

In the case of MDWCPSDMWAHCYN [Phage-249], the “CD28 scFv signal in presence of CD28” value [3] is reported as 0.109 and the “CD28 scFv signal” value [4] is reported as 1.21.

MDWCPRFMWAECFN [Phage-247] was tested, and the “CD28 scFv signal in presence of CD28” value [3] was 0.341 and the “CD28 scFv signal” value [4] was 2.6.

In the case of MDWCPRYLWHVCFN [Phage-239], the “CD28 scFv signal in presence of CD28” value [3] is reported as 0.409 and the “CD28 scFv signal” value [4] is reported as 2.6.

For MDWCPRTLWHVCFN [Phage-240], the “CD28 scFv signal in presence of CD28” value [3] was 0.551 and the “CD28 scFv signal” value [4] was 2.6.

With MDWCPRNLWHLCFA [Phage-245] the “CD28 scFv signal in presence of CD28” value [3] was 0.164 and the “CD28 scFv signal” value [4] was 1.4.

MDWCPPYLWSECFA [Phage-238] was tested, and the “CD28 scFv signal in presence of CD28” value [3] was 0.234 and the “CD28 scFv signal” value [4] was 2.6.

B4: Phage-171 (peptide, not shown: large carriers)
peptide: MNWCPSHLWHMCYF
modifications: cysteine pairing not given here; also: displayed as fusion to phage pIII, linker and pIII sequence not given here
notes: as for B1
In the case of B4, the “CD28 scFv signal in presence of CD28” value [1] is reported as 0.192 and the “CD28 scFv signal” value [2] is reported as 0.702.

In the case of MDWCPRYLWHECFS [Phage-235], the “CD28 scFv signal in presence of CD28” value [3] is reported as 0.303 and the “CD28 scFv signal” value [4] is reported as 2.65.

With MDWCPRYLWHECFD [Phage-244] the “CD28 scFv signal in presence of CD28” value [3] was 0.177 and the “CD28 scFv signal” value [4] was 2.07.

B5: Phage-168 (peptide, not shown: large carriers)
peptide: MDWCPKDLWHECFN
modifications: cysteine pairing not given here; also: displayed as fusion to phage pIII, linker and pIII sequence not given here
notes: as for B1
B5 was tested, and the “CD28 scFv signal in presence of CD28” value [1] was 0.1 and the “CD28 scFv signal” value [2] was 0.762.

MHWCPLHLWNECYH (peptide, not shown: large carriers, Clonal phage of the Peptide-9 library) [Phage-155] was tested, and the “CD28 scFv signal in presence of CD28” value [1] was 0.113 and the “CD28 scFv signal” value [2] was 1.37.

B6: Phage-170 (peptide, not shown: large carriers)
peptide: MNWCPSDLWHLCFN
modifications: cysteine pairing not given here; also: displayed as fusion to phage pIII, linker and pIII sequence not given here
notes: as for B1
B6 was tested, and the “CD28 scFv signal in presence of CD28” value [1] was 0.131 and the “CD28 scFv signal” value [2] was 0.739.

For MDWCPKVMWHYCFA [Phage-250], the “CD28 scFv signal in presence of CD28” value [3] was 0.252 and the “CD28 scFv signal” value [4] was 1.14.

For MNWCPTDLWHECFN (peptide, not shown: large carriers, Clonal phage of the Peptide-9 library) [Phage-162], the “CD28 scFv signal in presence of CD28” value [1] was 0.095 and the “CD28 scFv signal” value [2] was 1.09.

In the case of MDWCPRDLWNLCFF [Phage-236], the “CD28 scFv signal in presence of CD28” value [3] is reported as 0.436.

For MDWCPRALWFECFF [Phage-234], the “CD28 scFv signal in presence of CD28” value [3] was 0.331 and the “CD28 scFv signal” value [4] was 2.67.

In the case of MTWCPTSFWNRCLD [Phage-233], the “CD28 scFv signal in presence of CD28” value [3] is reported as 0.405 and the “CD28 scFv signal” value [4] is reported as 0.392.

For VPWCQIISGLECLT [Phage-229], the “CD28 scFv signal in presence of CD28” value [3] was 0.077 and the “CD28 scFv signal” value [4] was 0.174.

For APWCQIISGLECLT [Phage-230], the “CD28 scFv signal in presence of CD28” value [3] was 0.078 and the “CD28 scFv signal” value [4] was 0.169.

MDWCPKDRWNDCYF [Phage-224] was tested, and the “CD28 scFv signal” value [4] was 1.09.
